Source: patent US20230391872A1 (ANAPTYSBIO, published 2023)

How the values were obtained:
[1] = target: T1, human BTLA on cells (stably transfected 293c18 cells; human peripheral blood T and B cells) (human, UniProt Q7Z6A9 31-289); experiment: competition flow cytometry on 293c18 cells with human BTLA; increase of the binding of DyLight 650-HVEM-Fc (100 nM) with the antibody concentration [panel A]
T1 construct: whole, on cells; the cells are named under assay; also called cell surface BTLA; full-length human BTLA
Experimental: 293c18 cells, clone 1E4 stably expressing human BTLA were harvested with Accutase solution (Millipore Sigma/Sigma-Aldrich) and washed once with PBS, 1% BSA. Cells were plated at 2×10⁵ /well in U-bottom 96-well plates and placed on ice. Purified antibodies at twice the indicated concentrations were serially diluted 3-fold in FACS buffer (PBS, 1% BSA, 0.02% sodium azide). Antibodies tested were human IgG4 isotype control antibody specific for hen egg lysozyme, a reference BTLA IgG4 antagonist antibody, and 6G3 IgG4 (APE10840.06). Trimeric HVEM/LIGHT complexes were pre-formed by mixing equimolar (60 nM each) amounts of DyLight 650-HVEM human IgG1 Fc and trimeric LIGHT-foldon-his and pre-incubating for 15 minutes at room temperature. Either DyLight 650-HVEM-Fc (final concentration 100 nM; FIG. 6A) or pre-formed DyLight 650-HVEM/LIGHT complexes (final concentration of HVEM/LIGHT, 30 nM each; FIG. 6B) were added to the diluted antibodies (final concentrations of antibodies as indicated) and incubated for 15 minutes on ice. […] Cells were washed once, resuspended in FACS buffer and analyzed for fluorescence on a BD FACSArray (BD Biosciences). Median fluorescence intensities (MFI) were graphed in GraphPad Prism (GraphPad Software, Inc.) and curves fit with log(agonist) vs. response (three parameters) least squares fit. […]

[2] = target: T2, cynomolgus monkey BTLA on cells (stably transfected 293c18 clone 1G5); cynomolgus peripheral blood T and B … (cynomolgus monkey, UniProt A0A2K5W7M7 31-289); experiment: flow cytometry, AF647-labeled 6G3 IgG4 on cynomolgus monkey peripheral blood CD20+ B cells
T2 construct: whole, on cells; also called cynomolgus monkey BTLA 293c18 cells
T2 sequence: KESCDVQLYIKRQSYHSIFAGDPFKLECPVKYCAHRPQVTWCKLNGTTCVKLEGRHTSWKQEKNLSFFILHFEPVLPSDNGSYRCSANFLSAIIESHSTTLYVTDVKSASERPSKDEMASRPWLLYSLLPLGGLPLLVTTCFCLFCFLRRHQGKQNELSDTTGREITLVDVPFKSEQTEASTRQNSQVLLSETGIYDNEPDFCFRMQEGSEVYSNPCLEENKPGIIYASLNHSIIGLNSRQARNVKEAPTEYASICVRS
Experimental: (§1) Blood was then aliquoted into wells and incubated with the indicated concentrations of 6G3-AF647 (APE13766.02), or APC-Mouse Anti-Human CD272 (BTLA) reference antibody (clone J168-540; BD Biosciences) for minutes at room temperature, in the dark. Following incubation, red blood cells were lysed for minutes by addition of 2.0 ml diluted BD Pharm Lyse lysing solution (BD Biosciences), samples centrifuged at 200×g for 5 minutes, washed in FACS Buffer [Dulbecco's PBS, no calcium, no magnesium (Gibco/ThermoFisher Scientific), 25 mM HEPES, pH 7.2, 0.1% BSA, sodium azide] and fixed in 4% paraformaldehyde (200 μl/sample) for 10 minutes at room temperature. Samples were washed twice in FACS Buffer and analyzed for fluorescence on a NovoCyte Quanteon flow cytometer (ACEA Biosciences, Inc.). Data were analyzed using NovoExpress Software (ACEA Biosciences, Inc.). Mean fluorescence intensity (MFI) values were graphed and fit with nonlinear regression analyses in GraphPad Prism (GraphPad Software, Inc.). MFI values for each anti-BTLA antibody on total CD3+cells are shown in FIG. 5A; MFI values for each anti-BTLA antibody on total CD20+cells are shown in FIG. 5B. […] Binding of each anti-BTLA antibody to CD3⁻ cells in FIG. 5C and FIG. 5D (green cells in the bottom quadrants of each panel) reflects the binding to CD20⁺ B cells. […]

[3] = target: T2, cynomolgus monkey BTLA on cells (stably …); experiment: flow cytometry, AF647-labeled 6G3 IgG4 on cynomolgus monkey peripheral blood CD3+ T cells; not saturated at 100 nM
Experimental: as §1

[4] = target: T3, human BTLA ECD-his (monomeric human BTLA-his) (human, UniProt Q7Z6A9 31-157); experiment: Kinetic Exclusion Assay (KinExA 3000), solution phase, 6G3 IgG4 APE10840.04 at 100 pM, human BTLA ECD-his titrated
T3 construct: extracellular domain; also called human BTLA extracellular domain
T3 sequence (looked up): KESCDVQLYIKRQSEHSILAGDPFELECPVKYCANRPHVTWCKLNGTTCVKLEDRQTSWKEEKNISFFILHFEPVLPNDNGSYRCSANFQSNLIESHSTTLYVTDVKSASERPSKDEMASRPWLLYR
Experimental: Solution-based affinity measurements of 6G3 IgG4 (APE10840.04 (H Chain SEQ ID NO: 144, L Chain SEQ ID NO: 174)) binding to BTLA were determined on a KinExA 3000 (Sapidyne Instruments). Azlactone beads (ThermoFisher Scientific) were coated with human BTLA ECD-his (30 μg/ml) or cynomolgus monkey BTLA ECD-his (20 μg/ml) in 50 mM Na2CO3 for 2 hours at room temperature and blocked with 10 mg/ml BSA. 6G3 IgG4 APE10840.04 concentration was kept constant at 100 pM for binding in both human and cynomolgus monkey BTLA experiments. Human or cynomolgus monkey BTLA ECD-his was added at 25° C. in 2.5-fold dilutions from 1000 nM to 68 fM. Sample sets were equilibrated at 4° C. for 72 hours and brought to room temperature for 6 hours before capturing free antibody with BTLA-coupled Azlactone beads. […] Maximum and background signals were determined on samples with 6G3 only and buffer only, respectively. Data were analyzed using KinExA Pro Software 3.2.6.

B1: 6G3 IgG4 anti-BTLA antibody (APE10840 / APE12839 / APE13308) (antibody, V domains shown)
VH: QVQLVQSGAEVKKPGSSVKVSCKASGYVFSTSWMNWVRQAPGQGLEWMGRIYPGDADTNYVGKFKGRVTITADKSTTTAYMELSSLRSEDTAVYFCAKSGTFNFGNYRWYFDVWGKGTTVTVSS
VL: AIQLTQSPSSLSASVGDRVTITCRVSENIYSHLAWYQQKPGKAPKLLIYAATNLALGVPSRFSGSGSGTDYTLTISSLQPEDFATYYCQLFWGPPLTFGGGTKVEIKR
notes: Humanized antibody from a mouse hybridoma, tested as human IgG4 (detected with anti-human kappa); Some assays used labelled lots (DyLight 650, AF647, biotin, DyL488); also called 6G3 antibody; APE10840.03
EC50 (read off the curve) [1]: ~0.7 nM
EC50 [2]: ~1.4 nM
EC50 [3]: ~3.4 nM
Kd [4]: ~0.41 nM
